Data from patent publication US7507799.
One block for each substance: values may come before it.

Tests used:
[1] = biological target: trk A (autophosphorylation assay of Example 5); assay: cell-based or functional assay
[2] = biological target: trk A on trk A-overexpressing PC12 cells; assay: cell-based or functional assay
[3] = biological target: p75 on vascular smooth muscle cell line (p75Ts-Tag-SMC); assay: cell-based or functional assay
[4] = biological target: p75NTR on A875 cells (UniProt P08138); assay: whole-cell competition against 1 nM 125I-NGF on cells expressing only p75 (A875 cells)
p75NTR on A875 cells, sequence (P08138 29-427): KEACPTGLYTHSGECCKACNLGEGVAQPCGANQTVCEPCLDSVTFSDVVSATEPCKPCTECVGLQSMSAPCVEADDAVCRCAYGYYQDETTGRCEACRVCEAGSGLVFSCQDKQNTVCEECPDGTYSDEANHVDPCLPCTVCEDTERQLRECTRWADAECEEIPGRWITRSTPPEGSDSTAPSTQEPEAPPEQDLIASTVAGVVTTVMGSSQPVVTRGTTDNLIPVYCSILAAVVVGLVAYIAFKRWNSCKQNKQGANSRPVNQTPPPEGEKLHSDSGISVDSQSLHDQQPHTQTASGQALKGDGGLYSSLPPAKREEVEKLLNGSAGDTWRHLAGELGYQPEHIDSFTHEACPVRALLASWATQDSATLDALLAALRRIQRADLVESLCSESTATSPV

[5] = biological target: TrkA on 293 cells; assay: whole-cell competition against 1 nM 125I-NGF on 293 cells expressing only trk A
TrkA on 293 cells, sequence (P04629 33-796): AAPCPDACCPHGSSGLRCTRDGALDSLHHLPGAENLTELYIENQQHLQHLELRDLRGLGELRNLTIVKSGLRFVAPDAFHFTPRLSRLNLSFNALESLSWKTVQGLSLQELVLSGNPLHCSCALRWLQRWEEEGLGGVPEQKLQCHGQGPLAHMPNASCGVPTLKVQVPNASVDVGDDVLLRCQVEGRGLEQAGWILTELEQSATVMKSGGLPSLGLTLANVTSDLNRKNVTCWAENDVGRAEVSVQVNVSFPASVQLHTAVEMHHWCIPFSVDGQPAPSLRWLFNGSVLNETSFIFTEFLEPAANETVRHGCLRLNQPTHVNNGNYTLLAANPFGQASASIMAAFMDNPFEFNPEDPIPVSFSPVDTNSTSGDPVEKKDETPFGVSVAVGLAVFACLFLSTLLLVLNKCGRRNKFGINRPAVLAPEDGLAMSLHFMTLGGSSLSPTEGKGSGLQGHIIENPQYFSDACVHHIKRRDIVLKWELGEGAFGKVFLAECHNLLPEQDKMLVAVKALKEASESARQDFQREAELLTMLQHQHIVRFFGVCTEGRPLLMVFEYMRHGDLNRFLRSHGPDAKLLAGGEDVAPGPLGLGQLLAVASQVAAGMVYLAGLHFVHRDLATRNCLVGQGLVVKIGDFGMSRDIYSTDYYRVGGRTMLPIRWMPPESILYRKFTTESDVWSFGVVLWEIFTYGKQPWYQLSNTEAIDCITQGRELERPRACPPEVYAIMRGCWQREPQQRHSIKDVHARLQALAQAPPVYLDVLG

[6] = tested on: T1, rat BDNF secreted by adenovirus-infected 293T or endothelial cells (proforms of 30 kDa and 28 kDa)
T1 sequence: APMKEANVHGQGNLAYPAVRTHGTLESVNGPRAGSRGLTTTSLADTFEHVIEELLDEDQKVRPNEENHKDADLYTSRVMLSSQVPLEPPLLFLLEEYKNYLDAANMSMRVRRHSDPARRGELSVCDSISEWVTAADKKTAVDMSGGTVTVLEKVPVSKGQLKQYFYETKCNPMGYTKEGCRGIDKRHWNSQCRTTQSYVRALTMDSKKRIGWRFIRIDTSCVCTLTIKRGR

[7] = tested on: His-tagged cleavage resistant pro-NGF (point mutant, K-R cleavage site at 120,121 mutated to A-A)

commercial mature NGF (Enzo Products for Science, Farmingdale, N.Y.) (ligand), sequence (P01139 122-241): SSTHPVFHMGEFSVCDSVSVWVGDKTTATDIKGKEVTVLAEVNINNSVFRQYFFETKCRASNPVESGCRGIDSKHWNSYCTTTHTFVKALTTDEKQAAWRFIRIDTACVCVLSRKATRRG
plasmin, sequence (P00747 20-580): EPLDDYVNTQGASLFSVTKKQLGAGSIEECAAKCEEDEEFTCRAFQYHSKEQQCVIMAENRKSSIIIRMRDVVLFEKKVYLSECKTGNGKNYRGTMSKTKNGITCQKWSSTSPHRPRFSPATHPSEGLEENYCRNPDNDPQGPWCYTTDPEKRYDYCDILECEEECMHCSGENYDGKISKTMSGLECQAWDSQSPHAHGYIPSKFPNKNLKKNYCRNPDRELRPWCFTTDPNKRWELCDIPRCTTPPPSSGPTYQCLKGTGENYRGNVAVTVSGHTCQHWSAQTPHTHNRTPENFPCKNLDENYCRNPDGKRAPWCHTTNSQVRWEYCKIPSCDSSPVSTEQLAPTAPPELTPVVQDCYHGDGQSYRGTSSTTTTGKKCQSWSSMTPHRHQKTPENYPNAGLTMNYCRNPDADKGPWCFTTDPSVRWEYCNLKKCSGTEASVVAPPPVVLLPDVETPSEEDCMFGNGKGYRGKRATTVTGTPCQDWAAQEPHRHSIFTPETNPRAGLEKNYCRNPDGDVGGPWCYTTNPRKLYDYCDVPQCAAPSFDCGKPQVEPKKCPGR
plasmin, sequence (P00747 581-810): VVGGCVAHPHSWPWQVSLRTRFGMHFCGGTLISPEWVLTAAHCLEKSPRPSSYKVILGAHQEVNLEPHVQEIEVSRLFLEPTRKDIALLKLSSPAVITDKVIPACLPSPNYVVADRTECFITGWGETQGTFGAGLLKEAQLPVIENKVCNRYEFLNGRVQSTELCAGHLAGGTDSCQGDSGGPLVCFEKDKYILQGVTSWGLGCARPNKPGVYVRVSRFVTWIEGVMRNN
commercial mature NGF (Enzo Products for Science, Farmingdale, N.Y.) (ligand; other documents disagree on this pair), sequence (P01139 122-241): as the sequence (P01139 122-241) above

trk A autophosphorylation [1]: 0.2 nM
PC12 cell neuritogenesis [2]: 0.1 nM
Substance: His-tagged native NGF, completely processed to the mature form of 13.5 kDa (from UniProt P01139 122-241) (ligand)

trk A autophosphorylation [1]: 0.2 nM
PC12 cell neuritogenesis [2]: 0.1 nM
TUNEL positive cells at 18 h (% TUNEL positive cells at 2 nM) [3]: 20
IC50 [4]: 1 nM
Substance: commercial mature NGF (Enzo Products for Science, Farmingdale, N.Y.) (ligand)

IC50 [5]: 1.2 nM
Substance: commercial mature NGF (Enzo Products for Science, Farmingdale, N.Y.) (ligand; other documents disagree on this pair)

Substance: plasmin
proteolytic cleavage in endothelial media, Western blot [6]: In endothelial media, only plasmin and MMP-7 appeared to cleave the large proform
proteolytic cleavage, Western blot [7]: Pro-NGF was cleaved by plasmin to a 13 kD form
